21 molecules from PMC5108039, “Functional and Structural Characterization of a Novel HLA-DRB1*04:01-Restricted α-Enolase T Cell Epitope in Rheumatoid Arthritis” (Frontiers in Immunology, 2016) can be followed below.

Broadly, the IC50 is the midpoint of a concentration-inhibition curve.

Where two headings read alike, the source gives them in different places. Square brackets hold non-standard residues; d marks the D form. Ends that are not written are not given here. Peptide text beside a SMILES is read from it. Cit = NC(=O)NCCC[C@H](N)C(=O)O

Assay [1] deals with HLA-DRB1*04:04 (Homo sapiens, UniProt P01903+P01911, A100R/A169T/F76Y/I96L/K127E/L162R/M171V/N62H/P40V/Q125Y/R42H/S133A/S149N/S66Y/V209L/W38E). The assay can be described thus: Competition peptide-binding assay, HLA-DRB1*04:04. On the procedure: Stepwise binding analysis of 15-mer peptides derived from both native and citrullinated α-enolase to HLA-DRB1*01, *04:01, and *04:04 was performed using the ProImmune Class II Reveal assay (ProImmune, Oxford, UK). Relevant peptides were thereafter synthesized by GenScript (Piscataway, NJ, USA) and used for competition peptide-binding assays. […] Finally, peptide-binding affinity to the three different HLA alleles was assessed in direct binding assays in which N-terminally biotinylated epitopes (GenScript, Piscataway, NJ, USA) were incubated at concentrations from 5 to 0.05 μM with plate-bound relevant HLA-DRB1 molecules in the absence of a competitor peptide ([22]). The inflection point of the binding curve of a known binding epitope was used as a cutoff to separate weakly binding epitopes from background. […]

Assay [2] has as its target HLA-DRB1*01:01 (Homo sapiens, UniProt P01903+P01911, A100R/D57E/F55L/F60I/F76Y/I96L/L162R/M171V/P40L/Q125E/R42F/V115G/Y59C). Kind of assay: Competition peptide-binding assay, HLA-DRB1*01:01. On the procedure: Stepwise binding analysis of 15-mer peptides derived from both native and citrullinated α-enolase to HLA-DRB1*01, *04:01, and *04:04 was performed using the ProImmune Class II Reveal assay (ProImmune, Oxford, UK). Relevant peptides were thereafter synthesized by GenScript (Piscataway, NJ, USA) and used for competition peptide-binding assays. […] Finally, peptide-binding affinity to the three different HLA alleles was assessed in direct binding assays in which N-terminally biotinylated epitopes (GenScript, Piscataway, NJ, USA) were incubated at concentrations from 5 to 0.05 μM with plate-bound relevant HLA-DRB1 molecules in the absence of a competitor peptide ([22]). The inflection point of the binding curve of a known binding epitope was used as a cutoff to separate weakly binding epitopes from background.
We decided to make use of HLA-DRB1*01:01 as a representative model for HLA-DRB1*01.

The target of assay [3] is HLA-DRB1*04:01 (Homo sapiens, UniProt P01903+P01911, A100K/A169T/F76Y/I96L/K127E/L162R/M171V/N62H/P40V/Q125Y/R42H/S133A/S149N/S66Y/V115G/V209L/W38E). Kind of assay: biochemical.
For assay [4], the target named is HLA-DRB1*01:01 (plate-bound, peptide-binding assays) (human). Kind of assay: competition peptide-binding assay on plates.
The target in assay [5] is HLA-DRB1*04:01 (plate-bound, peptide-binding assays) (human). The assay can be described thus: competition peptide-binding assay on plates.
The target in assay [6] is HLA-DRB1*04:04 (plate-bound, peptide-binding assays) (human). Kind of assay: competition peptide-binding assay on plates.
[7] abbreviates: competition with 0.02 μM biotinylated GAD65 270–285, plate-bound HLA-DRB1*04:04, increasing peptide concentrations, read-out: IC50 *04:04.
The mark [8] stands for this setting: competition with 0.02 μM biotinylated HA306–318, plate-bound HLA-DRB1*01:01, increasing peptide concentrations, read-out: IC50 *01:01.

Regarding `CC[C@H](C)[C@H](N)C(=O)N[C@@H](Cc1ccccc1)C(=O)N[C@@H](CC(=O)O)C(=O)N[C@@H](CO)C(=O)N[C@@H](CCCNC(N)=O)C(=O)NCC(=O)N[C@@H](CC(N)=O)C(=O)N1CCC[C@H]1C(=O)N[C@H](C(=O)N[C@H](C(=O)N[C@@H](CCC(=O)O)C(=O)N[C@@H](CC(=O)O)C(=O)N[C@H](C(=O)N[C@@H](CC(C)C)C(=O)N[C@@H](Cc1ccccc1)C(=O)O)C(C)C)C(C)C)[C@@H](C)O` [cit11] (H-IFDS[Cit]GNPTVEDVLF-OH), the concentration for half-maximal inhibition (IC50) in assay [1] was found to be 1700 nM; in assay [2], 25000 nM.
Turning to `CC(C)C[C@H](NC(=O)CNC(=O)[C@H](CCCCN)NC(=O)[C@H](CO)NC(=O)[C@@H](N)[C@@H](C)O)C(=O)N[C@@H](Cc1ccccc1)C(=O)N[C@@H](CCCNC(N)=O)C(=O)N[C@@H](C)C(=O)N[C@@H](C)C(=O)N[C@H](C(=O)N1CCC[C@H]1C(=O)N[C@@H](CO)C(=O)NCC(=O)N[C@@H](C)C(=O)N[C@@H](CO)C(=O)O)C(C)C` [cit26] (H-TSKGLF[Cit]AAVPSGAS-OH), the IC50 in assay [1] (setting [7]) was determined as 500 nM; in assay [2] (setting [8]), 1900 nM; in assay [3], 1500 nM.
As for `CC[C@H](C)[C@H](NC(=O)[C@@H](N)C(C)C)C(=O)NCC(=O)N[C@@H](CCSC)C(=O)N[C@@H](CC(=O)O)C(=O)N[C@H](C(=O)N[C@@H](C)C(=O)N[C@@H](C)C(=O)N[C@@H](CO)C(=O)N[C@@H](CCC(=O)O)C(=O)N[C@@H](Cc1ccccc1)C(=O)N[C@@H](Cc1ccccc1)C(=O)N[C@@H](CCCNC(N)=O)C(=O)N[C@@H](CO)C(=O)NCC(=O)O)C(C)C` [cit241] (H-VIGMDVAASEFF[Cit]SG-OH), the IC50 amounted to 200 nM in assay [1] (setting [7]), 42000 nM in assay [2] (setting [8]) and 2500 nM in assay [3].
For the molecule `CC[C@H](C)[C@H](NC(=O)[C@H](CCCNC(N)=O)NC(=O)[C@@H](N)CCCCN)C(=O)N[C@@H](C)C(=O)N[C@@H](CCCCN)C(=O)N[C@@H](C)C(=O)N[C@H](C(=O)N[C@@H](CC(N)=O)C(=O)N[C@@H](CCC(=O)O)C(=O)N[C@@H](CCCCN)C(=O)N[C@@H](CO)C(=O)N[C@@H](CS)C(=O)N[C@@H](CC(N)=O)C(=O)N[C@@H](CS)C(=O)N[C@@H](CC(C)C)C(=O)O)C(C)C` [cit326] (H-K[Cit]IAKAVNEKSCNCL-OH), the values for the IC50 in assay [1] (setting [7]) and in assay [2] (setting [8]) were 700 nM and more than 50000 nM, respectively.
In the case of `CC[C@H](C)[C@H](NC(=O)[C@H](Cc1c[nH]cn1)NC(=O)[C@H](CCC(=O)O)NC(=O)[C@@H](NC(=O)[C@H](C)NC(=O)[C@H](CCCCN)NC(=O)[C@H](CO)NC(=O)[C@@H](NC(=O)CNC(=O)[C@H](CCCCN)NC(=O)CNC(=O)[C@H](CCSC)NC(=O)[C@H](Cc1ccc(O)cc1)NC(=O)[C@@H](N)CCCNC(=N)N)C(C)C)C(C)C)C(=O)N[C@@H](CC(N)=O)C(=O)O` [compound 56] (H-RYMGKGVSKAVEHIN-OH; N-terminus and C-terminus assumed), the IC50 in assay [1] (setting [7]) and in assay [2] (setting [8]) was more than 50000 nM each time.
`CC[C@H](C)[C@H](NC(=O)[C@H](CCCNC(=N)N)NC(=O)[C@H](CCSC)NC(=O)[C@H](C)NC(=O)[C@H](CCC(=O)O)NC(=O)[C@H](CCCNC(=N)N)NC(=O)[C@H](Cc1ccccc1)NC(=O)[C@H](CC(N)=O)NC(=O)[C@H](C)NC(=O)[C@H](C)NC(=O)CNC(=O)[C@@H](NC(=O)[C@@H]1CCCN1C(=O)[C@@H](N)CC(C)C)C(C)C)C(=O)NCC(=O)O` [compound 171] (H-LPVGAANFREAMRIG-OH; N-terminus and C-terminus assumed): the IC50 in assay [1] (setting [7]) and in assay [2] (setting [8]) was more than 50000 nM in each case.
For `CC[C@H](C)[C@H](NC(=O)[C@@H](N)C(C)C)C(=O)NCC(=O)N[C@@H](CCSC)C(=O)N[C@@H](CC(=O)O)C(=O)N[C@H](C(=O)N[C@@H](C)C(=O)N[C@@H](C)C(=O)N[C@@H](CO)C(=O)N[C@@H](CCC(=O)O)C(=O)N[C@@H](Cc1ccccc1)C(=O)N[C@@H](Cc1ccccc1)C(=O)N[C@@H](CCCNC(=N)N)C(=O)N[C@@H](CO)C(=O)NCC(=O)O)C(C)C` [compound 241] (H-VIGMDVAASEFFRSG-OH), the IC50 in assay [1] (setting [7]) turned out to be 500 nM; in assay [2] (setting [8]), 35000 nM; in assay [3] it was 2000 nM.
Consider `CC[C@H](C)[C@H](N)C(=O)N[C@@H](Cc1ccccc1)C(=O)N[C@@H](CC(=O)O)C(=O)N[C@@H](CO)C(=O)N[C@@H](CCCNC(=N)N)C(=O)NCC(=O)N[C@@H](CC(N)=O)C(=O)N1CCC[C@H]1C(=O)N[C@H](C(=O)N[C@H](C(=O)N[C@@H](CCC(=O)O)C(=O)N[C@@H](CC(=O)O)C(=O)N[C@H](C(=O)N[C@@H](CC(C)C)C(=O)N[C@@H](Cc1ccccc1)C(=O)O)C(C)C)C(C)C)[C@@H](C)O` [peptide 11] (H-IFDSRGNPTVEDVLF-OH; N-terminus and C-terminus assumed), for which the 50% inhibitory concentration (IC50) in assay [1] (setting [7]) and in assay [2] (setting [8]) was more than 50000 nM in each case.
For `CC[C@H](C)[C@H](NC(=O)[C@H](CCCNC(=N)N)NC(=O)[C@@H](N)CCCCN)C(=O)N[C@@H](C)C(=O)N[C@@H](CCCCN)C(=O)N[C@@H](C)C(=O)N[C@H](C(=O)N[C@@H](CC(N)=O)C(=O)N[C@@H](CCC(=O)O)C(=O)N[C@@H](CCCCN)C(=O)N[C@@H](CO)C(=O)N[C@@H](CS)C(=O)N[C@@H](CC(N)=O)C(=O)N[C@@H](CS)C(=O)N[C@@H](CC(C)C)C(=O)O)C(C)C` [peptide 326] (H-KRIAKAVNEKSCNCL-OH), the IC50 in assay [1] (setting [7]) is 700 nM; in assay [2] (setting [8]), more than 50000 nM.
As for “α-enolase peptide Cit11 (residues 11–25), citrullinated”, the results for the half-maximal inhibitory concentration (IC50) in assay [4], in assay [5] and in assay [6] were 25000 nM, 2200 nM and 1700 nM, respectively.
As to MSILKIHAREIFDSR [α-enolase peptide 1 (residues 1–15), native], the IC50 in assay [4] is 3500 nM; in assay [6], more than 50000 nM.
KAKFAGRNFRNPLAK [α-enolase peptide 420 (residues 420–434), native]: the values for the concentration for half-maximal inhibition (IC50) in assay [4], in assay [5] and in assay [6] were more than 50000 nM, more than 50000 nM and 25000 nM, respectively.
On to KAKFAG[Cit]NF[Cit]NPLAK [α-enolase peptide Cit420 (residues 420–434), citrullinated], for which the values for the IC50 in assay [4], in assay [5] and in assay [6] were more than 50000 nM, more than 50000 nM and 28000 nM, respectively.
Turning to VIGMDVAASEFF[Cit]SG [α-enolase peptide Cit241 (residues 241–255), citrullinated], the IC50 in assay [4] worked out at 42000 nM; in assay [5], 2500 nM; in assay [6], 200 nM.
Turning to LPVGAANF[Cit]EAM[Cit]IG [α-enolase peptide Cit171 (residues 171–185), citrullinated], the IC50 in assay [6] was more than 50000 nM.
In the case of MSILKIHA[Cit]EIFDS[Cit] [α-enolase peptide Cit1 (residues 1–15), citrullinated], the half-maximal inhibitory concentration (IC50) in assay [4] and in assay [6] was more than 50000 nM in each case.
Consider VIGMDVAASEFFRSG [α-enolase peptide 241 (residues 241–255), native], for which the figures for the IC50 in assay [4], in assay [5] and in assay [6] were 35000 nM, 2000 nM and 500 nM, respectively.
Regarding TSKGLFRAAVPSGAS [α-enolase peptide 26 (residues 26–40), native], the IC50 in assay [4] was 1400 nM; in assay [5], 4000 nM; in assay [6] it was 500 nM.
With K[Cit]IAKAVNEKSCNCL (cysteine pairing not given here) [α-enolase peptide Cit326 (residues 326–340), citrullinated], the results for the half-inhibitory concentration (IC50) in assay [4], in assay [5] and in assay [6] were more than 50000 nM, 1900 nM and 700 nM, respectively.
In the case of TSKGLF[Cit]AAVPSGAS [α-enolase peptide Cit26 (residues 26–40), citrullinated], the IC50 in assay [4] worked out at 1900 nM; in assay [5], 1500 nM; in assay [6], 500 nM.
Take KRIAKAVNEKSCNCL [α-enolase peptide 326 (residues 326–340), native]: the half-maximal inhibitory concentration (IC50) in assay [4] is more than 50000 nM; in assay [5], 1700 nM; in assay [6], 700 nM.
